Consider one molecule from article PMC11148069 (2024).

One may read the Kd as the concentration at which binding is half-saturated. The low end stands for a tighter complex, the high end for a looser complex.

The target in one experiment is xNup93-Nb1t. Nature of the experiment: BLI.
The target of another experiment is xhNup93-Nb3t. Put plainly: BLI. Background: Biolayer interferometry detects binding as a change in optical thickness at a sensor tip.

B1: recombinant Xenopus Nup93 target (BLI) (natural protein)
chain: MDGEGFGELLQQAEQLAAETEGVTELPHVERNLQEIQQAGERLRSKTMTRTSQESANVKASVLLGSRGLDISHISQRLESLSAATTFEPLEPVKDTDIQGFLKNEKDNALLSAIEESRKRTFVMAEEYHRESMLVEWEQVKQRVLHTLLASGEDALDFTQESETSYISESGAPGRSSLDNVEMAYARQMYMYNEKVVSGHLQPSLVDLCTEAAERLDDKNVSDLWVMVKQMTDVPLIPASDTLKSRCSGQMQMAFVRQALNYLEQSYKNYTLISVFANLQQAQLGGVPGTYNLVRSFLNIRLPTPIPGLQDGEIEGYPVWALIYYCMRCGDLMAAQQVVNRAQHQLGDFKNCFQEYIHNKDRRLSPTTENKLRLHYRRAVRASTDPYKRAVYCIIGRCDVSDNHSEVADKTEDYLWLKLSQVCFEDEANSSPQDRLTLPQFQKQLFEDYGESHFAVNQQPYLYFQVLFLTAQFEAAIAFLFRLERTRCHAVHVALALFELKLLLKSTGQSAQLLSQEPGEPQGVRRLNFIRLLMLYTRKFEPTDPREALQYFYFLRNEKDNQGESMFLRCVSELVIESREFDMLLGKLEKDGSRKPGAIDKFTRDTKTIINKVASVAENKGLFEEAAKLYDLAKNPDKVLELTNKLLSPVVSQISAPQSNRERLKNMALAIAERYKSQGVSAEKSINSTFYLLLDLITFFDEYHAGHIDLSFDVIERLKLVPLSQDSVEERVAAFRNFSDEIRHNLSEILLATMNILFTQYKRLKGSGPTTLGRPQRVQEDKDSVLRSQARALITFAGMIPYRMSGDTNARLVQMEVLMN
As to B1, the results for the equilibrium dissociation constant (Kd) in the experiment with xNup93-Nb1t and with xhNup93-Nb3t were 0.1 nM and less than 0.01 nM, respectively.
